Assay results published in paper PMC13638050 (PLOS Biology, 2026).
Numbering of substitutions follows the chain as printed. Numbers in names are those of the source.

T1: influenza B/Lee/1940 (B/Lee40) HA (influenza B virus B/Lee/1940, biotin on the BirA biotinylation site (BirA kit))
T1 construct: source: Sf9 (baculovirus), purified from the supernatant (Ni Sepharose excel, SEC)
T1 chain: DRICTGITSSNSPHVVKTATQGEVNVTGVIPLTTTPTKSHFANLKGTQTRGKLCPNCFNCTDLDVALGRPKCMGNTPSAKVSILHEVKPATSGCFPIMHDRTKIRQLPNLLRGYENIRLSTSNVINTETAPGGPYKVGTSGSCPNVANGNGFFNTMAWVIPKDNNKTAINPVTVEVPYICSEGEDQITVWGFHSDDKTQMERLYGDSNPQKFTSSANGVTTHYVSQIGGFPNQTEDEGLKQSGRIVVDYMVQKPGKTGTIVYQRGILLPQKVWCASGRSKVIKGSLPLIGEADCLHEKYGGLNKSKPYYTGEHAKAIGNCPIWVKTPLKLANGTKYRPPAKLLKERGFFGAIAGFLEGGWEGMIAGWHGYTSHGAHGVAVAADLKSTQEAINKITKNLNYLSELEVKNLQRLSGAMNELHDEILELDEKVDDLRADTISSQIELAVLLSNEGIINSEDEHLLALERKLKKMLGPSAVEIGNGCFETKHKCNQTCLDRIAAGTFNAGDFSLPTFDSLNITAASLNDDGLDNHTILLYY

B1: germline CR9114 Fab (inferred germline of CR9114) (Fab, V domains shown)
VH: QVQLVQSGAEVKKPGSSVKVSCKASGGTFSSYAISWVRQAPGQGLEWMGGIIPIFGTANYAQKFQGRVTITADKSTSTAYMELSSLRSEDTAVYYCARHGNYYYYYGMDVWGQGTTVTVS
VL: SYVLTQPPAVSGTPGQRVTISCSGSDSNIGRRSVNWYQQFPGTAPKLLIYSNDQRPSVVPDRFSGSKSGTSASLAISGLQSEDEAEYYCAAWDDSLKGAVFGGGTQLTVL
B2: somatic CR9114 Fab VH S52G (Fab, V domains shown)
VH: QVQLVQSGAEVKKPGSSVKVSCKSSGGTSNNYAISWVRQAPGQGLDWMGGIGPIFGSTAYAQKFQGRVTISADIFSNTAYMELNSLTSEDTAVYFCARHGNYYYYSGMDVWGQGTTVTVSS
VL: B1 VL
B3: somatic CR9114 Fab VH S24F (Fab, V domains shown)
VH: B2 VH with S24F, G52S
VL: B1 VL
B4: somatic CR9114 Fab VH S24L (Fab, V domains shown)
VH: B2 VH with S24L, G52S
VL: B1 VL
B5: somatic CR9114 Fab VH I73W (Fab, V domains shown)
VH: B2 VH with G52S, I74W
VL: B1 VL
B6: somatic CR9114 Fab VH S52V (Fab, V domains shown)
VH: B2 VH with G52V
VL: B1 VL

biological target: H1 stem (recombinant HA stem construct #4900 designed based on H1N1 A/Brisbane/59/2007 HA) (influenza A virus H1N1 …, biotin on the BirA biotinylation site (BirA kit)); assay: BLI; conditions: both partners purified

Binder | Kd [nM]
B1 | 185

Biological target: T1, influenza B/Lee/1940 (B/Lee40) HA
Assay: BLI
Conditions: both partners purified

Binder | binding result
B2 | no binding
B3 | no binding
B4 | no binding
B5 | no binding
B6 | no binding
